Test results from patent publication US20050089880.

Experiments:
[1] = target: T1, N-terminus of human CENP-A peptide
T1 chain: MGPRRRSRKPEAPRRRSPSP

[2] = target: T2, mutated H3 (K9L) N-terminal peptide
T2 chain: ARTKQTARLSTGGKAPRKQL

[3] = target: T3, N-terminus of rat macro-H2A peptide
T3 chain: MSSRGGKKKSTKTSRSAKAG

[4] = target: wild-type N-terminus of human histone H3 peptide (aa 1-20)

B1: murine GST-Suv39h1(aa 82-412) (protein)
chain: CIRVLKQFHKDLERELVRRHRRSKPPRHLDPNLANYLVQKAKQRRALQRWEQELNAKRSHLGRITVENEVDLDGPPRSFVYINEYRVGEGITLNQVAVGCECQDCLLAPTGGCCPGASLHKFAYNDQGQVRLKAGQPIYECNSRCCCGYDCPNRVVQKGIRYDLCIFRTNDGRGWGVRTLEKIRKNSFVMEYVGEIITSEEAERRGQIYDRQGATYLFDLDYVEDVYTVDAAYYGNISHFVNHSCDPNLQVYNVFIDNLDERLPRIAFFATRTIWAGEELTFDYNMQVDPVDMESTRMDSNFGLAGLPGSPKKRVRIECKCGTTACRKYLF
Histone H1
  in vitro methylation of individual histones (fluorography): A weak signal is present if H1 was used as the sole substrate
Histone H3
  in vitro HMTase activity (free histones, fluorography): maintained HMTase activity (although at a reduced level as compared to transfected SUV39H1)
  in vitro methylation of individual histones (fluorography): H3 is specifically methylated by GST-Suv39h1(aa 82-412)
[1]
  in vitro methylation of N-terminal peptides (SDS-PAGE, fluorography): no signals were detected with the CENP-A or macroH2A peptides, or with insulin
[2]
  in vitro methylation of N-terminal peptides (SDS-PAGE, fluorography): the mutated H3 (K9L) peptide was not a substrate
[3]
  in vitro methylation of N-terminal peptides (SDS-PAGE, fluorography): no signals were detected with the CENP-A or macroH2A peptides, or with insulin
[4]
  3H-incorporation of individual amino acids (microsequencing of the in vitro methylated peptide, scintillation counting): The results confirmed selective transfer of methyl-label to lysine 9
  in vitro methylation of N-terminal peptides (SDS-PAGE, fluorography): selective methylation of the wild-type H3 peptide
Histone H2B
  in vitro methylation of individual histones (fluorography): no signals are detected with H2A, H2B or H4
Histone H2A
  in vitro methylation of individual histones (fluorography): no signals are detected with H2A, H2B or H4
Histone H4
  in vitro methylation of individual histones (fluorography): no signals are detected with H2A, H2B or H4
insulin
  in vitro methylation of N-terminal peptides (SDS-PAGE, fluorography): no signals were detected with the CENP-A or macroH2A peptides, or with insulin

B2: triple myc-tagged C-terminally truncated SUV39H1 protein (aa 3-118) (protein)
chain: ENLKGCSVCCKSSWNQLQDLCRLAKLSCPALGISKRNLYDFEVEYLCDYKKIREQEYYLVKWRGYPDSESTWEPRQNLKCVRILKQFHKDLERELLRRHHRSKTPRHLDPSLANYL
Histone H3
  in vitro HMTase activity (transfer of 14C-methyl label to free histones, fluorography): no signals were detected with extracts from a HeLa cell line that expresses only the N-terminal third of SUV39H1 (aa 3-118)

B3: triple myc-tagged full-length human SUV39H1 (aa 3-412) (protein)
chain: ENLKGCSVCCKSSWNQLQDLCRLAKLSCPALGISKRNLYDFEVEYLCDYKKIREQEYYLVKWRGYPDSESTWEPRQNLKCVRILKQFHKDLERELLRRHHRSKTPRHLDPSLANYLVQKAKQRRALRRWEQELNAKRSHLGRITVENEVDLDGPPRAFVYINEYRVGEGITLNQVAVGCECQDCLWAPTGGCCPGASLHKFAYNDQGQVRLRAGLPIYECNSRCRCGYDCPNRVVQKGIRYDLCIFRTDDGRGWGVRTLEKIRKNSFVMEYVGEIITSEEAERRGQIYDRQGATYLFDLDYVEDVYTVDAAYYGNISHFVNHSCDPNLQVYNVFIDNLDERLPRIAFFATRTIRAGEELTFDYNMQVDPVDMESTRMDSNFGLAGLPGSPKKRVRIECKCGTESCRKYLF
Histone H3
  in vitro HMTase activity (transfer of 14C-methyl label to free histones, fluorography): indicating selective transfer of the methyl-label to H3

B4: murine GST-Suv39h1 product comprising aa 7-221 (protein)
chain: GCSVCCKSSWNQLQDLCRLAKLSCPALGVSKKNLYDFEVEYLCDYKKIREQEYYLVKWRGYPDSENTWEPRQNLKCIRVLKQFHKDLERELVRRHRRSKPPRHLDPNLANYLVQKAKQRRALQRWEQELNAKRSHLGRITVENEVDLDGPPRSFVYINEYRVGEGITLNQVAVGCECQDCLLAPTGGCCPGASLHKFAYNDQGQVRLKAGQPIYE
Histone H3
  in vitro HMTase activity (free histones, fluorography): proved negative, even at higher protein concentrations
